These results are taken from article PMC10397247.

Test [1] addresses T1, P4SN.
T1 chain: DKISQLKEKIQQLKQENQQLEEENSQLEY
The experiment in a line: two-hybrid library CCmax.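 Further: natural log of median RNA to DNA barcode read ratio; higher means stronger binding.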

Test [2] deals with T1, P4SN. As to the kind of experiment: two-hybrid library CCNG1.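 Further: natural log of median RNA to DNA barcode read ratio; higher means stronger binding.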 The note with it: mean of both orientations.
The target in test [3] is T2, Core_NNNI-es_KEKE.
T2 chain: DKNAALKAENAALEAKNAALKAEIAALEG
The experiment in a line: two-hybrid library CCmax.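 Further: natural log of median RNA to DNA barcode read ratio; higher means stronger binding.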 Particulars: mean of both orientations.

Test [4] has as its target T3, Core_INNN-es_KKEE.
T3 chain: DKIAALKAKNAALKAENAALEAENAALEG
The experiment in a line: two-hybrid library CCmax.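 Further: natural log of median RNA to DNA barcode read ratio; higher means stronger binding.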 Particulars: mean of both orientations.

For test [5], the target named is T4, Core_NINN-es_KEKE.
T4 chain: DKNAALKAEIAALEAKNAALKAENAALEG
The experiment in a line: two-hybrid library CCmax. The note with it: mean of both orientations.

Test [6] addresses T5, 4H145-bA.
T5 chain: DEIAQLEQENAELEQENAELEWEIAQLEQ
As to the kind of experiment: two-hybrid library CCNG1.

Test [7] concerns the target T6, 4H342-bA.
T6 chain: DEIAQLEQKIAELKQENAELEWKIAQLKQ
As to the kind of experiment: two-hybrid library CCNG1.

The target of test [8] is T7, 4H3632-bA.
T7 chain: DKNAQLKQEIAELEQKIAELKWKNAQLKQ
As to the kind of experiment: two-hybrid library CCNG1.

Test [9] deals with T8, 4H2619-bA.
T8 chain: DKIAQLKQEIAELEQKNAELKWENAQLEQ
As to the kind of experiment: two-hybrid library CCNG1.

Test [10] concerns the target T9, 4H1347-bA.
T9 chain: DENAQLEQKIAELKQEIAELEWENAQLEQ
As to the kind of experiment: two-hybrid library CCNG1.

The target in test [11] is T10, 4H496-bA.
T10 chain: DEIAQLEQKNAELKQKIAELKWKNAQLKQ
The experiment in a line: two-hybrid library CCNG1.

The target in test [12] is T11, 4H2691-bA.
T11 chain: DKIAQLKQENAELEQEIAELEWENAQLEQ
The experiment in a line: two-hybrid library CCNG1.

Test [13] has as its target T12, 4H3070-bA.
T12 chain: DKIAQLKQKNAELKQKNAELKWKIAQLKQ
The experiment in a line: two-hybrid library CCNG1.

Test [14] has as its target T13, Core_IINI-es_KEEE.
T13 chain: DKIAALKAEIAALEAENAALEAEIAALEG
As to the kind of experiment: two-hybrid library CCmax. The note with it: mean of both orientations.

The target of test [15] is T14, Core_NNIN-es_KEKK.
T14 chain: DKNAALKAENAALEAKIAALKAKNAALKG
As to the kind of experiment: two-hybrid library CCmax. The note with it: mean of both orientations.

In test [16] the target is T15, Core_NNNN-es_KKKE.
T15 chain: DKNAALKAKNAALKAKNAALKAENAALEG
As to the kind of experiment: two-hybrid library CCmax. The note with it: mean of both orientations.

The target in test [17] is T16, O8-bH.
T16 chain: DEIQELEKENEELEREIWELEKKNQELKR
As to the kind of experiment: two-hybrid library CCNG1.

For test [18], the target named is T17, O5-bH.
T17 chain: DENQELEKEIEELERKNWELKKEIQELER
The experiment in a line: two-hybrid library CCNG1.

Test [19] deals with T18, O2-bH.
T18 chain: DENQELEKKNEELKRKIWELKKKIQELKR
As to the kind of experiment: two-hybrid library CCNG1.

Test [20] has as its target T19, O12-bH.
T19 chain: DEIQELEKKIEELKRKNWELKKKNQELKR
As to the kind of experiment: two-hybrid library CCNG1.

Test [21] addresses T20, O9-bH.
T20 chain: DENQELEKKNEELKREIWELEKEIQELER
The experiment in a line: two-hybrid library CCNG1.

The target of test [22] is T21, O13-bH.
T21 chain: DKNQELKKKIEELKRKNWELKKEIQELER
The experiment in a line: two-hybrid library CCNG1.

Test [23] deals with T22, O15-bH.
T22 chain: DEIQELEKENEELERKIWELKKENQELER
As to the kind of experiment: two-hybrid library CCNG1.

In test [24] the target is T23, O4-bH.
T23 chain: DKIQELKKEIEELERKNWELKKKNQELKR
The experiment in a line: two-hybrid library CCNG1.

Test [25] concerns the target T24, O11-bH.
T24 chain: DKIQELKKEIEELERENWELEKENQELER
The experiment in a line: two-hybrid library CCNG1.

Test [26] concerns the target T25, O7-bH.
T25 chain: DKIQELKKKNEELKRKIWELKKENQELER
As to the kind of experiment: two-hybrid library CCNG1.

In test [27] the target is T26, O10-bH.
T26 chain: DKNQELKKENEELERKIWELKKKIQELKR
As to the kind of experiment: two-hybrid library CCNG1.

Test [28] concerns the target T27, O1-bH.
T27 chain: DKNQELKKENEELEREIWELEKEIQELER
As to the kind of experiment: two-hybrid library CCNG1.

Test [29] concerns the target T28, O14-bH.
T28 chain: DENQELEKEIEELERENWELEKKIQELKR
As to the kind of experiment: two-hybrid library CCNG1.

The target of test [30] is T29, O16-bH.
T29 chain: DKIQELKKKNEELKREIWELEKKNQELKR
The experiment in a line: two-hybrid library CCNG1.

Test [31] deals with T30, O3-bH.
T30 chain: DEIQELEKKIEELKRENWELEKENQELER
The experiment in a line: two-hybrid library CCNG1.

The target in test [32] is T31, O6-bH.
T31 chain: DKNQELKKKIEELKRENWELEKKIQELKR
As to the kind of experiment: two-hybrid library CCNG1.

In test [33] the target is T32, P8mS.
T32 chain: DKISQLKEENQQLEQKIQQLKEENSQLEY
As to the kind of experiment: two-hybrid library CCNG1.

Test [34] addresses T33, P4mS.
T33 chain: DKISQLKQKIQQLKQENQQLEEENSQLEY
As to the kind of experiment: two-hybrid library CCNG1.

Test [35] has as its target T34, P12mS.
T34 chain: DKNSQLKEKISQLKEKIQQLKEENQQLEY
The experiment in a line: two-hybrid library CCNG1.

In test [36] the target is T35, P6mS.
T35 chain: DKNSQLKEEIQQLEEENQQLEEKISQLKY
The experiment in a line: two-hybrid library CCNG1.

Test [37] has as its target T36, P9mS.
T36 chain: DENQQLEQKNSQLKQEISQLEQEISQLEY
The experiment in a line: two-hybrid library CCNG1.

The target in test [38] is T37, P7mS.
T37 chain: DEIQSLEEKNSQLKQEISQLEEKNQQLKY
The experiment in a line: two-hybrid library CCNG1.

The target of test [39] is T38, P5mS.
T38 chain: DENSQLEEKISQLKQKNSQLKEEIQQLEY
As to the kind of experiment: two-hybrid library CCNG1.

Test [40] concerns the target T39, P3mS.
T39 chain: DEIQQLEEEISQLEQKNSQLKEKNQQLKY
The experiment in a line: two-hybrid library CCNG1.

In test [41] the target is T40, P11mS.
T40 chain: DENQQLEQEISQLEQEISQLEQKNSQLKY
The experiment in a line: two-hybrid library CCNG1.

The target of test [42] is T41, P10mS.
T41 chain: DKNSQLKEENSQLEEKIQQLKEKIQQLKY
The experiment in a line: two-hybrid library CCNG1.

B1: P3SN (peptide)
chain: DEIQQLEEEISQLEQKNSELKEKNQELKY
In the case of B1, the figures for the interaction score in [1] and in test [2] were -0.993 and 1.25, respectively.

B2: Core_NNNI-es_EKEK (peptide)
chain: DENAALEAKNAALKAENAALEAKIAALKG
In the case of B2, in test [3], the interaction score worked out at 2.1.

B3: Core_INNN-es_EEKK (peptide)
chain: DEIAALEAENAALEAKNAALKAKNAALKG
In test [4], B3 showed an interaction score of 1.67.

B4: Core_NINN-es_EKEK (peptide)
chain: DENAALEAKIAALKAENAALEAKNAALKG
Turning to B4, in [5], the interaction score was determined as 1.51.

B5: 4H1347-bA (peptide)
chain: DENAQLEQKIAELKQEIAELEWENAQLEQ
For the molecule B5, the interaction score is -0.0112 in test [6]; -0.567 in [7]; 1.92 in test [8]; -0.421 in test [9]; -0.84 in test [10]; -0.596 in [11]. For the same molecule, the interaction score is -0.56 in test [12] and -0.786 in test [13].

B6: Core_IINI-es_EKKK (peptide)
chain: DEIAALEAKIAALKAKNAALKAKIAALKG
The molecule B6 came in with an interaction score in test [14] of 2.08.

B7: Core_NNIN-es_EKEE (peptide)
chain: DENAALEAKNAALKAEIAALEAENAALEG
For B7, in test [15], the interaction score was 1.32.

B8: Core_NNNN-es_EEEK (peptide)
chain: DENAALEAENAALEAENAALEAKNAALKG
Regarding B8, the interaction score in [16] was 0.962.

B9: O1-bH (peptide)
chain: DKNQELKKENEELEREIWELEKEIQELER
Regarding B9, the interaction score in test [17] was -2.35; in test [18], -1.92; in test [19], -0.214; in test [20], -0.434; in test [21], -2.31; in test [22], 0.467. In addition, the interaction score in test [23] was -0.695; in [24], -1.15; in test [25] it was -0.522; in test [26], -0.877; in [27], 0.782; in [28], -0.259. In addition, the interaction score is -0.549 in test [29], -0.655 in test [30], -1.49 in [31] and -0.62 in test [32].

B10: P10mS (peptide)
chain: DKNSQLKEENSQLEEKIQQLKEKIQQLKY
As to B10, the interaction score in test [33] is -0.478; in test [34], 0.178; in test [35], 0.126; in [36], -2.03; in test [37], -0.677; in test [38] it was 0.649. Besides, the interaction score was -1.28 in test [39], -1.79 in test [40], 0.347 in test [41] and -0.344 in [42].
